Assay results: the supplement of paper PMC10567573

B1: ZNF8 (parent)
chain: SLGRHKRTHTGEKPYTCSVCGKSF

Variants of: B1
Assay: protein stability index of a GFP-peptide fusion (GPS, HEK-293T) (PSI 1-6); higher = more stable
Details: c terminus: a fixed tail appended
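Note: lentivirally expressed fusions sorted by FACS into six bins by GFP to DsRed ratio, PSI derived from sequencing read proportions per bin multiplied by bin number.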

Variant | protein stability index
SLGRHKRTHTGEKPYQCSVCGKSF [T16Q] | 3.14
SLGRHKRTHTGEKPYMCSVCGKSF [T16M] | 2.85
SLGRHKRTHTGEKPYVCSVCGKSF [T16V] | 3.01
SLGRHKRTHTGEKPYCCSVCGKSF [T16C] | 2.31
SLGRHKRTHTGEKPYNCSVCGKSF [T16N] | 2.97
SLGRHKRTHTGEKPYFCSVCGKSF [T16F] | 3.04
SLGRHKRTHTGEKPYWCSVCGKSF [T16W] | 2.33
SLGRHKRTHTGEKPYSCSVCGKSF [T16S] | 2.51
SLGRHKRTHTGEKPYACSVCGKSF [T16A] | 2.95
SLGRHKRTHTGEKPYDCSVCGKSF [T16D] | 2.81
SLGRHKRTHTGEKPYRCSVCGKSF [T16R] | 2.89
SLGRHKRTHTGEKPYYCSVCGKSF [T16Y] | 2.61
SLGRHKRTHTGEKPYLCSVCGKSF [T16L] | 2.25
SLGRHKRTHTGEKPYKCSVCGKSF [T16K] | 2.68
SLGRHKRTHTGEKPYICSVCGKSF [T16I] | 2.75
SLGRHKRTHTGEKPYHCSVCGKSF [T16H] | 2.77
SLGRHKRTHTGEKPYPCSVCGKSF [T16P] | 2.19
SLGRHKRTHTGEKPYECSVCGKSF [T16E] | 2.98
SLGRHKRTHTGEKKYTCSVCGKSF [P14K] | 2.83
SLGRHKRTHTGEKSYTCSVCGKSF [P14S] | 3.3
SLGRHKRTHTGEKFYTCSVCGKSF [P14F] | 3.14
SLGRHKRTHTGEKQYTCSVCGKSF [P14Q] | 3
SLGRHKRTHTGEKTYTCSVCGKSF [P14T] | 3.77
SLGRHKRTHTGEKGYTCSVCGKSF [P14G] | 2.44

Variant | protein stability index
SLGRHKRTHTGEKWYTCSVCGKSF [P14W] | 3.82
SLGRHKRTHTGEKIYTCSVCGKSF [P14I] | 3.47
SLGRHKRTHTGEKLYTCSVCGKSF [P14L] | 3.73
SLGRHKRTHTGEKEYTCSVCGKSF [P14E] | 2.8
SLGRHKRTHTGEKRYTCSVCGKSF [P14R] | 2.63
SLGRHKRTHTGEKYYTCSVCGKSF [P14Y] | 3
SLGRHKRTHTGEKHYTCSVCGKSF [P14H] | 2.89
SLGRHKRTHTGEKMYTCSVCGKSF [P14M] | 2.72
SLGRHKRTHTGEKNYTCSVCGKSF [P14N] | 3.21
SLGRHKRTHTGEKVYTCSVCGKSF [P14V] | 3.18
SLGRHKRTHTGEKPYTCSVCGKFF [S23F] | 2.38
SLGRHKRTHTGEKPYTCSVCGKPF [S23P] | 2.39
SLGRHKRTHTGEKPYTCSVCGKEF [S23E] | 3.03
SLGRHKRTHTGEKPYTCSVCGKRF [S23R] | 3.2
SLGRHKRTHTGEKPYTCSVCGKAF [S23A] | 2.5
SLGRHKRTHTGEKPYTCSVCGKTF [S23T] | 3.32
SLGRHKRTHTGEKPYTCSVCGKIF [S23I] | 2.8
SLGRHKRTHTGEKPYTCSVCGKWF [S23W] | 2.12
SLGRHKRTHTGEKPYTCSVCGKKF [S23K] | 3.3
SLGRHKRTHTGEKPYTCSVCGKHF [S23H] | 3.12
SLGRHKRTHTGEKPYTCSVCGKCF [S23C] | 2.48
SLGRHKRTHTGEKPYTCSVCGKLF [S23L] | 2.69
SLGRHKRTHTGEKPYTCSVCGKVF [S23V] | 1.95
SLGRHKRTHTGEKPYTCSVCGKNF [S23N] | 2.9

Variant | protein stability index
SLGRHKRTHTGEKPYTCSVCGKGF [S23G] | 2.94
SLGRHKRTHTGEKPYTCSVCGKDF [S23D] | 3.3
SLGRHKRTHTGEKPYTCSVCGKMF [S23M] | 2.18
SLGRHKRTHTGEKPYTCSVCGKQF [S23Q] | 2.25
SLGRHKRTHTGEKPYTCSVCGKYF [S23Y] | 2.79
SLGRHKRTHTGEKPYTCSDCGKSF [V19D] | 3.5
SLGRHKRTHTGEKPYTCSSCGKSF [V19S] | 3.04
SLGRHKRTHTGEKPYTCSTCGKSF [V19T] | 2.75
SLGRHKRTHTGEKPYTCSWCGKSF [V19W] | 1.88
SLGRHKRTHTGEKPYTCSNCGKSF [V19N] | 3.47
SLGRHKRTHTGEKPYTCSFCGKSF [V19F] | 2.67
SLGRHKRTHTGEKPYTCSQCGKSF [V19Q] | 3.45
SLGRHKRTHTGEKPYTCSACGKSF [V19A] | 2.36
SLGRHKRTHTGEKPYTCSICGKSF [V19I] | 2.79
SLGRHKRTHTGEKPYTCSCCGKSF [V19C] | 3.68
SLGRHKRTHTGEKPYTCSLCGKSF [V19L] | 2.29
SLGRHKRTHTGEKPYTCSGCGKSF [V19G] | 2.7
SLGRHKRTHTGEKPYTCSMCGKSF [V19M] | 2.7
SLGRHKRTHTGEKPYTCSHCGKSF [V19H] | 3.06
SLGRHKRTHTGEKPYTCSPCGKSF [V19P] | 3.06
SLGRHKRTHTGEKPYTCSECGKSF [V19E] | 2.42
SLGRHKRTHTGEKPYTCSRCGKSF [V19R] | 3.15
SLGRHKRTHTGEKPYTCSKCGKSF [V19K] | 2.93
SLGRHKRTHTGEKPYTCSYCGKSF [V19Y] | 2.64

Variant | protein stability index
SLGRHKRTHTGEKPYTCSVCGISF [K22I] | 2.05
SLGRHKRTHTGEKPYTCSVCGTSF [K22T] | 3.37
SLGRHKRTHTGEKPYTCSVCGYSF [K22Y] | 3.41
SLGRHKRTHTGEKPYTCSVCGNSF [K22N] | 2.87
SLGRHKRTHTGEKPYTCSVCGHSF [K22H] | 3.12
SLGRHKRTHTGEKPYTCSVCGGSF [K22G] | 2.19
SLGRHKRTHTGEKPYTCSVCGFSF [K22F] | 2.54
SLGRHKRTHTGEKPYTCSVCGCSF [K22C] | 2.54
SLGRHKRTHTGEKPYTCSVCGVSF [K22V] | 2.48
SLGRHKRTHTGEKPYTCSVCGQSF [K22Q] | 2.47
SLGRHKRTHTGEKPYTCSVCGDSF [K22D] | 3.01
SLGRHKRTHTGEKPYTCSVCGSSF [K22S] | 2.34
SLGRHKRTHTGEKPYTCSVCGLSF [K22L] | 2.36
SLGRHKRTHTGEKPYTCSVCGESF [K22E] | 3.66
SLGRHKRTHTGEKPYTCSVCGRSF [K22R] | 3.09
SLGRHKRTHTGEKPYTCSVCGPSF [K22P] | 3.29
SLGRHKRTHTGEKPYTCSVCGMSF [K22M] | 2.07
SLGRHKRTHTGEKPYTCSVCGASF [K22A] | 2.82
SLGRHKRTHTGEKPYTCSVAGKSF [C20A] | 3.05
SLGRHKRTHTGEKPYTCSVKGKSF [C20K] | 3.23
SLGRHKRTHTGEKPYTCSVFGKSF [C20F] | 2.47
SLGRHKRTHTGEKPYTCSVRGKSF [C20R] | 2.98
